Results as given in patent US20220204580A1 (AstraZeneca / MedImmune, published 2022).
Numbered stars: 1 amine (or outer) side, 2 acyl side, 3 side chain; on linkers, the order of the positions; unused ones are H or OH. Bridge positions count the residues as written; N and C are the ends. Square brackets hold non-standard residues; d marks the D form. Side chains are listed from the residue outwards. Ends that are not written are not given here. * marks the point of attachment. C18 diacid = O=C(O)CCCCCCCCCCCCCCCCC(=O)*; γGlu = O=C(O)[C@H](CCC(=O)[*:2])N[*:1]; AEEA = NCCOCCOCC(=O)O; Aib = CC(C)(N)C(=O)O

T1: human amylin receptor (calcitonin receptor co-expressed with receptor activity modifying protein, RAMP3) (human, UniProt P30988 25-474; O60896 24-148)
T1 sequence (looked up) 1: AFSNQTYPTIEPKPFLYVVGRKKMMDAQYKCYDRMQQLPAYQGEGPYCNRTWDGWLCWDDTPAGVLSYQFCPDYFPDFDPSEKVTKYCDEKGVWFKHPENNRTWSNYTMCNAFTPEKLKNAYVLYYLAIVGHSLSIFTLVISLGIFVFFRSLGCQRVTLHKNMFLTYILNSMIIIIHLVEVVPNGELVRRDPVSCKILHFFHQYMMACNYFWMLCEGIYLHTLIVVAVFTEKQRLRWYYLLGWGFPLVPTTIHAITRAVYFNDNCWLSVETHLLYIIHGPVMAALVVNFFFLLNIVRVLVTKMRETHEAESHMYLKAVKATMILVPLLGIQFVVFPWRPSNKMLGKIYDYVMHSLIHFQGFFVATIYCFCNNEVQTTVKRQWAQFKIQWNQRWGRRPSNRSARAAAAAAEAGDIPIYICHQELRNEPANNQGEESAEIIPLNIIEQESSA
T1 sequence (looked up) 2: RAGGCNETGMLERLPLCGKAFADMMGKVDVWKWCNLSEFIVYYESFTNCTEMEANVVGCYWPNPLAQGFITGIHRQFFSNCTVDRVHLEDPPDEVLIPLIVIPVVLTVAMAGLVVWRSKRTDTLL

T2: human calcitonin receptor (human, UniProt P30988 25-474)
T2 sequence (looked up): T1 sequence (looked up) 1

B1: Peptide 6 (SEQ ID NO: 6) (peptide)
peptide: K([AEEA-AEEA-γGlu-C18 diacid])CNTATCATQRLANFLVHSSNNFGPILPPTNVGSNTY-NH2
modifications: disulfide 2-7
B2: Peptide 45 (SEQ ID NO: 45) (peptide)
peptide: K([AEEA-AEEA-γGlu-C18 diacid])CNTATCATQRLANFLRHSS[Aib]NFGPILPPTEVGSNTY-NH2
modifications: disulfide 2-7; N-terminus assumed
SMILES: CC[C@H](C)[C@H](NC(=O)[C@@H]1CCCN1C(=O)CNC(=O)[C@H](Cc1ccccc1)NC(=O)[C@H](CC(N)=O)NC(=O)C(C)(C)NC(=O)[C@H](CO)NC(=O)[C@H](CO)NC(=O)[C@H](Cc1c[nH]cn1)NC(=O)[C@H](CCCNC(=N)N)NC(=O)[C@H](CC(C)C)NC(=O)[C@H](Cc1ccccc1)NC(=O)[C@H](CC(N)=O)NC(=O)[C@H](C)NC(=O)[C@H](CC(C)C)NC(=O)[C@H](CCCNC(=N)N)NC(=O)[C@H](CCC(N)=O)NC(=O)[C@@H](NC(=O)[C@H](C)NC(=O)[C@@H]1CSSC[C@H](NC(=O)[C@@H](N)CCCCNC(=O)COCCOCCNC(=O)COCCOCCNC(=O)CC[C@H](NC(=O)CCCCCCCCCCCCCCCCC(=O)O)C(=O)O)C(=O)N[C@@H](CC(N)=O)C(=O)N[C@@H]([C@@H](C)O)C(=O)N[C@@H](C)C(=O)N[C@@H]([C@@H](C)O)C(=O)N1)[C@@H](C)O)C(=O)N[C@@H](CC(C)C)C(=O)N1CCC[C@H]1C(=O)N1CCC[C@H]1C(=O)N[C@H](C(=O)N[C@@H](CCC(=O)O)C(=O)N[C@H](C(=O)NCC(=O)N[C@@H](CO)C(=O)N[C@@H](CC(N)=O)C(=O)N[C@H](C(=O)N[C@@H](Cc1ccc(O)cc1)C(N)=O)[C@@H](C)O)C(C)C)[C@@H](C)O
B3: Peptide 42 (SEQ ID NO: 42) (peptide)
peptide: K([γGlu-C18 diacid])KCNTATCATQRLANFLVHSS[Aib]NFGPILPPTNVGSETY-NH2
modifications: disulfide 3-8; N-terminus assumed
SMILES: CC[C@H](C)[C@H](NC(=O)[C@@H]1CCCN1C(=O)CNC(=O)[C@H](Cc1ccccc1)NC(=O)[C@H](CC(N)=O)NC(=O)C(C)(C)NC(=O)[C@H](CO)NC(=O)[C@H](CO)NC(=O)[C@H](Cc1c[nH]cn1)NC(=O)[C@@H](NC(=O)[C@H](CC(C)C)NC(=O)[C@H](Cc1ccccc1)NC(=O)[C@H](CC(N)=O)NC(=O)[C@H](C)NC(=O)[C@H](CC(C)C)NC(=O)[C@H](CCCNC(=N)N)NC(=O)[C@H](CCC(N)=O)NC(=O)[C@@H](NC(=O)[C@H](C)NC(=O)[C@@H]1CSSC[C@H](NC(=O)[C@H](CCCCN)NC(=O)[C@@H](N)CCCCNC(=O)CC[C@H](NC(=O)CCCCCCCCCCCCCCCCC(=O)O)C(=O)O)C(=O)N[C@@H](CC(N)=O)C(=O)N[C@@H]([C@@H](C)O)C(=O)N[C@@H](C)C(=O)N[C@@H]([C@@H](C)O)C(=O)N1)[C@@H](C)O)C(C)C)C(=O)N[C@@H](CC(C)C)C(=O)N1CCC[C@H]1C(=O)N1CCC[C@H]1C(=O)N[C@H](C(=O)N[C@@H](CC(N)=O)C(=O)N[C@H](C(=O)NCC(=O)N[C@@H](CO)C(=O)N[C@@H](CCC(=O)O)C(=O)N[C@H](C(=O)N[C@@H](Cc1ccc(O)cc1)C(N)=O)[C@@H](C)O)C(C)C)[C@@H](C)O
B4: Peptide 37 (SEQ ID NO: 37) (peptide)
peptide: K([γGlu-C18 diacid])KCNTATCATQRLANFLSHSS[Aib]NFGPILPPTNVGSNTY-NH2
modifications: disulfide 3-8; N-terminus assumed
SMILES: CC[C@H](C)[C@H](NC(=O)[C@@H]1CCCN1C(=O)CNC(=O)[C@H](Cc1ccccc1)NC(=O)[C@H](CC(N)=O)NC(=O)C(C)(C)NC(=O)[C@H](CO)NC(=O)[C@H](CO)NC(=O)[C@H](Cc1c[nH]cn1)NC(=O)[C@H](CO)NC(=O)[C@H](CC(C)C)NC(=O)[C@H](Cc1ccccc1)NC(=O)[C@H](CC(N)=O)NC(=O)[C@H](C)NC(=O)[C@H](CC(C)C)NC(=O)[C@H](CCCNC(=N)N)NC(=O)[C@H](CCC(N)=O)NC(=O)[C@@H](NC(=O)[C@H](C)NC(=O)[C@@H]1CSSC[C@H](NC(=O)[C@H](CCCCN)NC(=O)[C@@H](N)CCCCNC(=O)CC[C@H](NC(=O)CCCCCCCCCCCCCCCCC(=O)O)C(=O)O)C(=O)N[C@@H](CC(N)=O)C(=O)N[C@@H]([C@@H](C)O)C(=O)N[C@@H](C)C(=O)N[C@@H]([C@@H](C)O)C(=O)N1)[C@@H](C)O)C(=O)N[C@@H](CC(C)C)C(=O)N1CCC[C@H]1C(=O)N1CCC[C@H]1C(=O)N[C@H](C(=O)N[C@@H](CC(N)=O)C(=O)N[C@H](C(=O)NCC(=O)N[C@@H](CO)C(=O)N[C@@H](CC(N)=O)C(=O)N[C@H](C(=O)N[C@@H](Cc1ccc(O)cc1)C(N)=O)[C@@H](C)O)C(C)C)[C@@H](C)O
B5: Peptide 39 (SEQ ID NO: 39) (peptide)
peptide: K([γGlu-C18 diacid])KCNTATCATQRLANFLEHSS[Aib]NFGPILPPTNVGSNTY-NH2
modifications: disulfide 3-8; N-terminus assumed
SMILES: CC[C@H](C)[C@H](NC(=O)[C@@H]1CCCN1C(=O)CNC(=O)[C@H](Cc1ccccc1)NC(=O)[C@H](CC(N)=O)NC(=O)C(C)(C)NC(=O)[C@H](CO)NC(=O)[C@H](CO)NC(=O)[C@H](Cc1c[nH]cn1)NC(=O)[C@H](CCC(=O)O)NC(=O)[C@H](CC(C)C)NC(=O)[C@H](Cc1ccccc1)NC(=O)[C@H](CC(N)=O)NC(=O)[C@H](C)NC(=O)[C@H](CC(C)C)NC(=O)[C@H](CCCNC(=N)N)NC(=O)[C@H](CCC(N)=O)NC(=O)[C@@H](NC(=O)[C@H](C)NC(=O)[C@@H]1CSSC[C@H](NC(=O)[C@H](CCCCN)NC(=O)[C@@H](N)CCCCNC(=O)CC[C@H](NC(=O)CCCCCCCCCCCCCCCCC(=O)O)C(=O)O)C(=O)N[C@@H](CC(N)=O)C(=O)N[C@@H]([C@@H](C)O)C(=O)N[C@@H](C)C(=O)N[C@@H]([C@@H](C)O)C(=O)N1)[C@@H](C)O)C(=O)N[C@@H](CC(C)C)C(=O)N1CCC[C@H]1C(=O)N1CCC[C@H]1C(=O)N[C@H](C(=O)N[C@@H](CC(N)=O)C(=O)N[C@H](C(=O)NCC(=O)N[C@@H](CO)C(=O)N[C@@H](CC(N)=O)C(=O)N[C@H](C(=O)N[C@@H](Cc1ccc(O)cc1)C(N)=O)[C@@H](C)O)C(C)C)[C@@H](C)O
B6: Peptide 36 (SEQ ID NO: 36) (peptide)
peptide: K([γGlu-C18 diacid])KCNTATCATQRLANFL[Aib]HSS[Aib]NFGPILPPTNVGSNTY-NH2
modifications: disulfide 3-8; N-terminus assumed
SMILES: CC[C@H](C)[C@H](NC(=O)[C@@H]1CCCN1C(=O)CNC(=O)[C@H](Cc1ccccc1)NC(=O)[C@H](CC(N)=O)NC(=O)C(C)(C)NC(=O)[C@H](CO)NC(=O)[C@H](CO)NC(=O)[C@H](Cc1c[nH]cn1)NC(=O)C(C)(C)NC(=O)[C@H](CC(C)C)NC(=O)[C@H](Cc1ccccc1)NC(=O)[C@H](CC(N)=O)NC(=O)[C@H](C)NC(=O)[C@H](CC(C)C)NC(=O)[C@H](CCCNC(=N)N)NC(=O)[C@H](CCC(N)=O)NC(=O)[C@@H](NC(=O)[C@H](C)NC(=O)[C@@H]1CSSC[C@H](NC(=O)[C@H](CCCCN)NC(=O)[C@@H](N)CCCCNC(=O)CC[C@H](NC(=O)CCCCCCCCCCCCCCCCC(=O)O)C(=O)O)C(=O)N[C@@H](CC(N)=O)C(=O)N[C@@H]([C@@H](C)O)C(=O)N[C@@H](C)C(=O)N[C@@H]([C@@H](C)O)C(=O)N1)[C@@H](C)O)C(=O)N[C@@H](CC(C)C)C(=O)N1CCC[C@H]1C(=O)N1CCC[C@H]1C(=O)N[C@H](C(=O)N[C@@H](CC(N)=O)C(=O)N[C@H](C(=O)NCC(=O)N[C@@H](CO)C(=O)N[C@@H](CC(N)=O)C(=O)N[C@H](C(=O)N[C@@H](Cc1ccc(O)cc1)C(N)=O)[C@@H](C)O)C(C)C)[C@@H](C)O
B7: Peptide 5 (SEQ ID NO: 5) (peptide)
peptide: K([γGlu-γGlu-C18 diacid])CNTATCATQRLANFLVHSSNNFGPILPPTNVGSNTY-NH2
modifications: disulfide 2-7

target: T1, human amylin receptor (calcitonin …); test: cell-based or functional assay

EC50 (cAMP production) [nM] | Ratio (EC50 hCTR / EC50 hAMYR3) | Binder
0.068 | 5 | B1
0.588 | 29 | B2
0.47 | 6 | B3
0.249 | 8 | B4
1.05 | 10 | B5
0.331 | 19 | B6
0.174 | 21 | B7

target: T2, human calcitonin receptor; test: cell-based or functional assay

EC50 (cAMP production) [nM] | Binder
0.31 | B1
16.9 | B2
2.95 | B3
1.96 | B4
10.4 | B5
6.39 | B6
3.6 | B7
